Results published in article PMC3187938.

Target: affinity-matured, humanized, antiprostate stem-cell antigen (PSCA) minibody (clone A11.1 2C3)
Assay: SEC

stoichiometry N: 2
B1: affinity-matured, humanized, antiprostate stem-cell antigen (PSCA) minibody (clone A11.1 2C3) (antibody, V domains shown)
VH: EVQLVEYGGGLVQPGGSLRLSCAASGFNIKDYYIHWVRQAPGKGLEWVAWIDPENGDTEFVPKFQGRATMSADTSKNTAYLQMNSLRAEDTAVYYCKTGGFWGQGTLVTVSS
VL: DIQLTQSPSTLSASMGDRVTITCSASSSVRFIHWYQQKPGKAPKRLIYDTSKLASGVPSRFSGSGSGTDFTLTISSLQPEDFATYYCQQWGSSPFTFGQGTKVEIK
